B1: FapB: cross-β Pseudomonas Aeruginosa-originated bacterial amyloid (protein, UniProt Q9I2E9 20-189, looked up)
Functional amyloid subunit …: DPLASRNRASIDDSGTYRGNFALNQAAGDAQQQSNVRVVAVGSAALVGSDQRQHLQLDASQPIAASASISGAALRGSGILGVNQGAGLGNQQINAFRLSLSNGPESLDDSVLAQSVALTKVSGSATPVPGGRSVSTDDRAFAGSSGVVQVNQSAGVGNQSMNTLSVRVME
B2: FapC: cross-β Pseudomonas Aeruginosa-originated bacterial amyloid (protein, UniProt Q9I2F0 25-340, looked up)
Functional amyloid subunit …: GNEGGWHPPKPNPQSNNKGGATALVVDTQQNYNNKVSNFGTLNNASVSGSIKDASGNVGVNVAAGDNNQQANAAALASADASFVFGTATASTSVLQSGYGNTLNNYSNPNTASLSNSANNVSGNLGVNVAAGNFNQQKNDLAAAVSNGQYSTAGSAASQTSTGNTTVNSANYAYGGTYVSLKLNADGSYKGTSDQIGDVYLDTWEGQTHPGGSNTGHIDVDSQAQGAKDLNHDGGAFAFKEKGDVDLKGTVSGFIPAIVGFKTPVTNNASLSNSLQNVSGNVGVNIAAGGGNQQSNSLSIAAGCSSCPAGGESLGF

Format: biochemical
Settings: Fap 20 µM, nitrocefin 100 µM, A480, ten hours (Fig. S3)
Procedure: Figure S3. Cross-β bacterial amyloids of Pseudomonas Aeruginosa. Fap B and Fap C were incubated for seven days at 37 °C for fibrillation. Then, upon appearance of typical turbidity the samples were diluted and nitrocefin was added to the samples, creating solutions of 20 µM Fap and nitrocefin in concentration of 100 µM. The absorbance of the nitrocefin was recorded in microplate reader at 480 nm for ten hours, resulting low absorbance relatively to the PSMα at close mass concentration (w/v, 300 µM). This comparison was necessary due to the major differences in sequence length of the Fap proteins and the short PSMα3 peptide. The results are shown as absorbance rather than product concentration due to the slight turbidity of the Fap samples.
(1 picture or pasted object on this page, not shown here)

Row | Molecule | nitrocefin degradation by cross-β bacterial amyloids
1 | B1 | minor nitrocefin degradation
2 | B2 | minor nitrocefin degradation
